From the RNAGym collection of RNA variant scans (doi:10.1073/pnas.2313332121) come the findings set out here.

Variants at the floor of the assay were thinned out.

B1: TPR 5TU (parent)
chain: GGAUCUUCUCGAUCUAACAAAAAAGACAAAUCUGCCACAAAGCUUGAGAGCAUCUUCGGAUGCAGAGGCGGCAGCCUUCGGUGGCGCGAUAGCGCCAACGUUCUCAACUAUGACACGCAAAACGCGUGCUCCGUUGAAUGGAGUUUAUCAUG

The variants in this data set derive from B1. Description: polymerase ribozyme fitness, log enrichment relative to wild type (log ratio); higher = more active; in vitro selection for triplet polymerase activity. A digest of the protocol: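 Mutant libraries of each subunit of a heterodimeric triplet polymerase ribozyme were built by PCR and transcribed. Each library went through one round of in vitro selection in triplicate: annealing with biotinylated primer, partner subunit and triplets, frozen incubation at −7 °C, gel excision of extended constructs, streptavidin-bead capture and RT-PCR. Input and output libraries were Illumina-sequenced; only genotypes with ≥10 input reads and ≥1 read per output were kept. Fitness is log2(genotype enrichment/wild-type enrichment), using inverse-variance-weighted replicate averages.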
Turning to GGAUCUUCUCGAUCUAACAAAAAAGACAAAUCUGCCACAAAGCUUGAGAGCAUUUUCGGAUGCAGAGGCGGCAGCCUUCGGUGGCGCGAUAGCGCCAACGUUCUCAACUAUGACACGCAAAACGCGUGCUCCGAUGAAUGGAGUUUAUCAUG [C54U U134A], the “polymerase ribozyme fitness (log ratio)” value was -2.84. For the variant GGAUCUUCUCGAUCUAACAAAAAAGACAAAUCUGCCACAAAGCUUGAGAGCAUCAUCGGAUGCAGGGGCGGCAGCCUUCGGUGGCGCGAUAUCGCCAACGUUCUCAACUAUGACACGCCAAACGCGUGCUCCGUUGAAUGGAGUUUAUCAUG [U55A A66G G92U A119C], the “polymerase ribozyme fitness (log ratio)” value was not above -4.2.

As to GGAUCUUCUCGAUCUAACAAAAAAGACAAAUCUGCCACAAAGCUUGAGAGCAUCAUCGGAUGCAGAGGCGGCAGCCUUCGGUGGCGCGAUAGCGCCAACGUUCUCAGCUAUGACACGCAAAACGCGUGCUCCGUUGAAUGGAGUUUAUCAUG [U55A A107G], the “polymerase ribozyme fitness (log ratio)” value was -3.7. GGAUCUUCUCGAUCUAACAAAAAAGACAAAUCUGCCACAAAGCUUGAGAGCAUCAUCGGAUGCAGAGGCGGCAGCCUUCGGUGGCGCGAUAGCGCCAACGUUCUCCACUAUGACACGCAAAACGGGUGCUCCGUUGAAUGGAGUUUAUCAUG [U55A A106C C125G]: the “polymerase ribozyme fitness (log ratio)” value is -1.63.

GGAUCUUCUCGAUCUAACAAAAAAGACAAAUCUGCCACAAAGCUUGAGAGCAUCAUCGGAUGCAGAGGCGGCCGCCUUCGGUGGCGUGAUAACGCCAACGUUCUCAACUAUGACACGCAAAACGCGUGCUCCGUUGAAUGGAGUUUAUCAUG [U55A A73C C87U G92A]: the “polymerase ribozyme fitness (log ratio)” value was -2.04. Under GGAUCUUCUCGAUCUAACAAAAAAGACAAAUCUGCCACAAAGCUUGAGAGCAUCAUCGGUUGCAGAGGCGGCAGCCUUCGGUGUCGCGAUAGCGCCAACGUUCUCAACUAUGACAGGCUAAACGCGUGCUCCGUUGAAUGGAGUUUAUCAUG [U55A A60U G84U C116G A119U] stands -2.63; under GGAUCUUCUCGAUCUAACAAAAAAGACAAAUCUGCCACAAAGCUUGAGAGCAUCAUCGGGUGCAGAGGCGGCAGCGUUCGGUGGCGGGAUAGCGCUAACGUUCUCAACUAUGACACGCAAAACGCGUGCUCCGUUGAAACGAGUUUAUCAUG [U55A A60G C76G C87G C96U U139A G140C], not above -4.2.

On to GGAUCUUCUCGAUCUAACAAAAAAGACAAAUCUGCCACAAAGCUUGAGAGCAUUUUCGGAUGCAGAGGCGGCAGCCUUCGGAAGCGCGAUAGCGCCAGCGUUCUCAACUAUGACACGCAAAACGCGUGCUCCGUUGAAUGGAGUUUAUCAUG [C54U U82A G83A A98G], for which the “polymerase ribozyme fitness (log ratio)” value was -1.89.

In the case of GGAUCUUCUCGAUCUAACAAAAAAGACAAAUCUGCCACAAAGCUUGAGAGCAUCAUCGGCUGCAGAGGCGGCAGCCUUCGGUGGCGCGAUAGCGCCAACGUUCUCAACUAUGACACGCAAAACGCGUGCUCCGUUGAAUGGAGUUUAUCAUG [U55A A60C], the “polymerase ribozyme fitness (log ratio)” value was -4.18. Under GGAUCUUCUCGAUCUAACAAAAAAGACAAAUCUGCCACAAAGCUUGAGAGCAUCAUCGGGUGCAGAGGCGGCAGCCUUCGGUGGCGCGAUAGCGCCAACGUUCUCAACUAUGACACGCAAAACGCGUGCUCCGUUGAAUGGAGUUUAUCAUG [U55A A60G] stands 0.676. Next, GGAUCUUCUCGAUCUAACAAAAAAGACAAAUCUGCCACAAAGCUUGAGAGCAUCAUCGGAUGCAGAGGCGGCGGCCUUCGGUGGCGCGGUAGCGCCAACGUUCUCAACUAUGACACGCAAAACGCGUGCUCCGUUAAAUGGAGUUUAUCAUG [U55A A73G A89G G136A]: -0.934; GGAUCUUCUCGAUCUAACAAAAAAGACAAAUCUGCCACAAAGCUUGAGAGCAUCAUCGGAUGCAGAGGCGGCAGCCUUCGGUGGCGCGAUUGCGCAAACGUUCUCAACUAUGACACGCAAAACGGGUGCUCCGUUGAAUGGGGUUUAUCAUG [U55A A91U C96A C125G A142G]: not above -4.2.

On to GGAUCUUCUCGAUCUAACAAAAAAGACAAAUCUGCCACAAAGCUUGAGAGCAUCAUCGGAUGCAGUGGCGGCAAACUUGGGUGGCGCCAUAGCGGCAACGUUCUCAACUAUGACACGCAAAACGCGUGCUCCGUUGUAUGGAGUUUAUCAUG [U55A A66U G74A C75A C79G G88C C95G A137U], for which the “polymerase ribozyme fitness (log ratio)” value was not above -4.2. With GGAUCUUCUCGAUCUAACAAAAAAGACAAAUCUGCCACAAAGCUUGAGAGCAUCAUCGGAUGCAGAGGCGGCAGCCUUCGGUGGCGCGAUAGCGCCAACGUUCUCUUCUAUGACACGCAAAACGCGUGCUCCGUUGAAUGGAGUUUAUCAUG [U55A A106U A107U], the “polymerase ribozyme fitness (log ratio)” value was -4.11.

As to GGAUCUUCUCGAUCUAACAAAAAAGACAAAUCUGCCACAAAGCUUGAGAGCAUCAUCGGGUGCAGAGGUGGCAGCCUUCGGUGGCGCGAUAUCGCCAACGUUCUCAACUAUGACACGCAAAACGCGUGCUCCGUUGAAUGGAGUUUUUCAUG [U55A A60G C69U G92U A147U], the “polymerase ribozyme fitness (log ratio)” value is -0.244. Under GGAUCUUCUCGAUCUAACAAAAAAGACAAAUCUGCCACAAAGCUUGAGAGCAUCAUCGGAUGCAGCGGCGGCAGCCAUCGGUGGCGAGAUAGCGCCAACGUUCUCAACUAUGACACGCAAAACGCGUGCUCCGUUGAAUGGAGUUUAUCAUG [U55A A66C U77A C87A] stands not above -4.2; under GGAUCUUCUCGAUCUAACAAAAAAGACAAAUCUGCCACAAAGCUUGAGAGCAUCAUCGGAUGCAGAGGCGGCAGCCUUCGGUGGCGCGAUCGCGCCAACGUUCUCAACUAUGACACGCAAAACGCGUGCUCCGUUGAAUGGAGUUUAUCAUG [U55A A91C], not above -4.2; under GGAUCUUCUCGAUCUAACAAAAAAGACAAAUCUGCCACAAAGCUUGAGAGCAUCAUCGGAUGCAGAGGCGGCAGCCUUCGGUGGCGCGAUAGCGCCAACGUUCUCAACUAUGCCACGCAAAACGCGUGCUCCGUUGAAUGGAGUUUAUCAUG [U55A A113C], -2.92.

Consider GGAUCUUCUCGAUCUAACAAAAAAGACAAAUCUGCCACAAAGCUUGAGAGCAUCAUCGGAUGCCGAGGCGGCAGCCUUCGGUGGUGCGAUAGCGCCAACGUUCUCAACUAUGACACGCAAAACGCGUGCUCCGUUGAAUGGAGUUGAUCAUG [U55A A64C C85U U146G], for which the “polymerase ribozyme fitness (log ratio)” value was not above -4.2.
